Measured values published in patent US20140017234A1.
Values joined by “and” are separate entries in the source; they are usually repeats but may differ in a detail not shown here. Equal entries are not always repeated. Where two headings read alike, the source gives them in different places.

Tests used:
[1] = target: clade A/E 93TH057-derived gp120 core (HIV-1 clade A/E strain 93TH057)
[2] = target: HIV-1 YU-2 Env (gp120) mutant N279K (HIV-1 strain YU-2) (UniProt P35961)
[3] = target: HIV-1 YU-2 Env (gp120) mutant A281T (HIV-1 strain YU-2) (UniProt P35961)
[4] = target: HIV-1 YU-2 Env (gp120) mutant N279K (HIV-1 strain YU-2) (UniProt P35961); remark: listed apart in the source
[5] = target: HIV-1 YU-2 Env (gp120) mutant N280Y (HIV-1 strain YU-2) (UniProt P35961)
[6] = target: HIV-1 YU-2 Env (gp120) mutant N280D (HIV-1 strain YU-2) (UniProt P35961)
[7] = target: YU-2^R456W (HIV-1)
[8] = target: YU-2^N279H (HIV-1)
[9] = target: HIV-1 YU-2 Env (gp120) mutant T278A (HIV-1 strain YU-2) (UniProt P35961)
[10] = target: HIV-1 YU-2 Env (gp120) mutant N276S (HIV-1 strain YU-2) (UniProt P35961)
[11] = target: HIV-1 YU-2 Env (gp120) mutant A281S (HIV-1 strain YU-2) (UniProt P35961)
[12] = target: HIV-1 YU-2 Env (gp120) mutant N280Y (HIV-1 strain YU-2) (UniProt P35961); remark: listed apart in the source
[13] = target: HIV-1 YU-2 Env (gp120) mutant N280D (HIV-1 strain YU-2) (UniProt P35961); remark: listed apart in the source
[14] = target: HIV-1 YU-2 Env (gp120) mutant A281T (HIV-1 strain YU-2) (UniProt P35961); assay: cell-based or functional assay

NIH45-46 Fab
Kd [1]: 221 nM and 178 nM

45-46m28 IgG (45-46m2 + HC W47T) (antibody)
IC50 (pseudovirus neutralization, TZM-bl cells) [2]: 0.65 µg/mL
IC50 (pseudovirus neutralization, TZM-bl cells), first of the two values given [3]: 0.1 µg/mL
IC50 (pseudovirus neutralization, TZM-bl cells), second of the two values given [3]: > 50 µg/mL
IC50 (pseudovirus neutralization, TZM-bl cells) [4]: 0.652 µg/mL

NIH45-46^G54W Fab
Kd [1]: 62 nM and 72 nM

NIH45-46^G54W IgG (antibody)
IC50 (pseudovirus neutralization, TZM-bl cells) [2]: > 50 µg/mL
IC50 (pseudovirus neutralization, TZM-bl cells) [5]: > 50 µg/mL
IC50 (pseudovirus neutralization, TZM-bl cells) [6]: > 50 µg/mL
IC50 (pseudovirus neutralization, TZM-bl cells) [7]: 5.67 µg/mL
IC50 (pseudovirus neutralization, TZM-bl cells), first of the two values given [3]: 0.1 µg/mL
IC50 (pseudovirus neutralization, TZM-bl cells), second of the two values given [3]: > 50 µg/mL
IC50 (pseudovirus neutralization, TZM-bl cells) [8]: > 50 µg/mL
IC50 (pseudovirus neutralization) [9]: 0.001 µg/mL
IC50 (pseudovirus neutralization) [10]: 0.004 µg/mL

45-46m2 IgG (NIH45-46 with G54W in the heavy chain and S28Y in the light chain) (antibody)
IC50 (pseudovirus neutralization, TZM-bl cells) [5]: 2.23 µg/mL
IC50 (pseudovirus neutralization, TZM-bl cells), first of the two values given [3]: 0.1 µg/mL
IC50 (pseudovirus neutralization, TZM-bl cells), second of the two values given [3]: > 50 µg/mL
IC50 (pseudovirus neutralization, TZM-bl cells) [8]: 0.452 µg/mL
IC50 (pseudovirus neutralization) [9]: 0.001 µg/mL
IC50 (pseudovirus neutralization) [10]: 0.006 µg/mL
IC50 (read off the curve) [11]: 0.01 µg/mL
IC50 (pseudovirus neutralization, TZM-bl cells) [12]: 2.23 µg/mL
IC50 (pseudovirus neutralization, TZM-bl cells) [13]: 0.435 µg/mL
plateau of the in vitro neutralization curve [14]: 50%

45-46m7 IgG (45-46m2 + HC W47V) (antibody)
IC50 (pseudovirus neutralization, TZM-bl cells) [2]: 2.41 µg/mL
IC50 (pseudovirus neutralization, TZM-bl cells), first of the two values given [3]: 0.1 µg/mL
IC50 (pseudovirus neutralization, TZM-bl cells), second of the two values given [3]: > 50 µg/mL
IC50 (pseudovirus neutralization, TZM-bl cells) [8]: 0.245 µg/mL
IC50 (pseudovirus neutralization) [9]: 0.001 µg/mL
IC50 (pseudovirus neutralization) [10]: 0.003 µg/mL
IC50 (read off the curve) [11]: 0.01 µg/mL
IC50 (pseudovirus neutralization, TZM-bl cells) [4]: 2.41 µg/mL
IC50 (pseudovirus neutralization, TZM-bl cells) [13]: 0.139 µg/mL
plateau of the in vitro neutralization curve [14]: 50%

45-46m25 IgG (45-46m2 + HC W47I) (antibody)
IC50 (pseudovirus neutralization, TZM-bl cells), first of the two values given [3]: 0.1 µg/mL
IC50 (pseudovirus neutralization, TZM-bl cells), second of the two values given [3]: > 50 µg/mL
IC50 (pseudovirus neutralization, TZM-bl cells) [4]: 2.59 µg/mL
IC50 (pseudovirus neutralization, TZM-bl cells) [13]: 0.19 µg/mL

45-46m2 Fab (NIH45-46 with G54W in the heavy chain and S28Y in the light chain)
Kd [1]: 51 nM and 57 nM
